Measurements taken from PMC3585358, “Identification and Multidimensional Optimization of an Asymmetric Bispecific IgG Antibody Mimicking the Function of Factor VIII Cofactor Activity” (PLoS ONE, 2013).

Columns and labels:
human factor IXa = target: T1, human factor IXa (Homo sapiens, UniProt P00740); assay: SPR; Biacore T200; anti-FIXa or anti-FX monospecific antibodies captured on MabSelect SuRe Ligand (recombinant Protein A) immobilized on a CM4 chip; natalizumab (human IgG4) on the reference cell; 0, 80, 160, 320, 640 or 1,280 nM human FIXa or FX injected at 30 uL/min; 10 mM HEPES pH 7.4, 150 mM NaCl, 0.05% surfactant P20, 2.5 mM CaCl2; conditions: both partners purified
T1 construct: also called FIXa; source: bought: Enzyme Research Laboratories (purified human coagulation factors; the source is stated for the enzymatic assay)

human factor X = target: T2, human factor X (Homo sapiens, UniProt P00742); assay: as above; conditions: both partners purified
T2 construct: human coagulation factor X (zymogen), light chain; also called FX; source: bought: Enzyme Research Laboratories (purified human coagulation factors; the source is stated for the enzymatic assay)
T2 sequence (P00742 41-179, chain 1 of 2): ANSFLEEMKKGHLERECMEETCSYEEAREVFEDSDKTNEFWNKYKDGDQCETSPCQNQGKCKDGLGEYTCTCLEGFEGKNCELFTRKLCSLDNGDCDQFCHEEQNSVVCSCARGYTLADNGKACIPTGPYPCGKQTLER
T2 sequence (P00742 183-488, chain 2 of 2): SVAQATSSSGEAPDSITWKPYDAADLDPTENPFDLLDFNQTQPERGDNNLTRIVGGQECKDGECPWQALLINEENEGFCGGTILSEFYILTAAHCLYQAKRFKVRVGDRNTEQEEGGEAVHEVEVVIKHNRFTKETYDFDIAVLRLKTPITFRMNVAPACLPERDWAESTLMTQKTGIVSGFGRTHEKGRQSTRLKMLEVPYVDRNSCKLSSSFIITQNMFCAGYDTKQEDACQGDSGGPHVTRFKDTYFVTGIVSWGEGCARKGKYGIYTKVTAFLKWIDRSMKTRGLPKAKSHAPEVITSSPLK

T1 sequence (P00740 47-191, chain 1 of 2): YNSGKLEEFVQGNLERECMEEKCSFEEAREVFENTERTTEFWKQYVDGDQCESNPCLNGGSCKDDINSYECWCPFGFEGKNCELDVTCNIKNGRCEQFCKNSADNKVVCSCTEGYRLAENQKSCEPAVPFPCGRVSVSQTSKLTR
T1 sequence (P00740 227-461, chain 2 of 2): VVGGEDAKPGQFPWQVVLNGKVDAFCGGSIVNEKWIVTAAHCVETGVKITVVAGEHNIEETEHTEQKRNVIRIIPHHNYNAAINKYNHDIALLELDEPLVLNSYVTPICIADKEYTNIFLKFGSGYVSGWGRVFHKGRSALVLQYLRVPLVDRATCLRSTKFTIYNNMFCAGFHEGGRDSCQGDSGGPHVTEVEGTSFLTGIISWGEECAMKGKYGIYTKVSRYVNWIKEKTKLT

binding result (human factor IXa)	binding result (human factor X)	Binder
binds		anti-FIXa monospecific IgG of hBS910 (anti-FIXa heavy chain and common light chain) (antibody, V domains shown, as the anti-FIXa heavy chain of m1; as the common light chain of m1; The SPR methods say that monospecific antibodies were captured; also called monospecific anti-FIXa antibody; anti-FIXa homodimeric antibody; source: HEK293 cells, transfected; filtrated culture supernatants or Protein A purified antibodies; copies: 2 + 2) VH: QVQLVESGGGLVQPGGSLRLSCAASGFTFSYYDIQWVRQAPGKGLEWVSSISPSGQSTYYRREVKGRFTISRDNSKNTLYLQMNSLRAEDTAVYYCARRTGREYGGGWYFDYWGQGTLVTVSS VL: DIQMTQSPSSLSASVGDRVTITCKASRNIERQLAWYQQKPGQAPELLIYQASRKESGVPDRFSGSRYGTDFTLTISSLQPEDIATYYCQQYSDPPLTFGGGTKVEIK
	binds	anti-FX monospecific IgG of hBS910 (anti-FX heavy chain and common light chain) (antibody, V domains shown, as the anti-FX heavy chain of m1; as the common light chain of m1; The SPR methods say that monospecific antibodies were captured; also called monospecific anti-FX antibody; anti-FX homodimeric antibody; source: HEK293 cells, transfected; filtrated culture supernatants or Protein A purified antibodies; copies: 2 + 2) VH: QVQLVQSGSELKKPGASVKVSCKASGYTFTDNNMDWVRQAPGQGLEWMGDINTRSGGSIYNEEFQDRVIMTVDKSTDTAYMELSSLRSEDTATYHCARRKSYGYYLDEWGEGTLVTVSS VL: DIQMTQSPSSLSASVGDRVTITCKASRNIERQLAWYQQKPGQAPELLIYQASRKESGVPDRFSGSRYGTDFTLTISSLQPEDIATYYCQQYSDPPLTFGGGTKVEIK
